Assay results published in patent US20220251236A1 (Boehringer Ingelheim, published 2022).

B1: DLL3#6/CD3#1 (bispecific antibody, human IgG1, kappa, lambda, L234A L235A)
chain 1: DIQLTQSPSFLSTSVGDRVTITCRASQDISNYFAWYQQKPGKAPKLLIYAASTLQSGVPSRFSGGGSGTEFTLTISSLQPEDFATYYCQQLNSYPYTFGQGTKLEIKRTVAAPSVFIFPPSDEQLKSGTASVVCLLNNFYPREAKVQWKVDNALQSGNSQESVTEQDSKDSTYSLSSTLTLSKADYEKHKVYACEVTHQGLSSPVTKSFNRGECGGGGSEGKSSGSGSESKSTEGKSSGSGSESKSTGGGGSQVQLQESGPGLVKPSETLSLTCTVSGGSISSYFWSWIRQPAGKGLEWIGRIYTSGSTNYNPSLNSRLTMSVDTSKNQFSLKLSSVTAADTAVYYCARRGDWGGFDIWGQGTVVTVSSASTKGPSVFPLAPSSKSTSGGTAALGCLVKDYFPEPVTVSWNSGALTSGVHTFPAVLQSSGLYSLSSVVTVPSSSLGTQTYICNVNHKPSNTKVDKRVEPKSCDKTHTCPPCPAPEAAGGPSVFLFPPKPKDTLMISRTPEVTCVVVDVSHEDPEVKFNWYVDGVEVHNAKTKPREEQYNSTYRVVSVLTVLHQDWLNGKEYKCKVSNKALPAPIEKTISKAKGQPREPQVYTLPPSREEMTKNQVSLWCLVKGFYPSDIAVEWESNGQPENNYKTTPPVLDSDGSFFLYSKLTVDKSRWQQGNVFSCSVMHEALHNHYTQKSLSLSPG
chain 2: EAVVTQEPSLTVSPGGTVTLTCRSSTGAVTTSNYANWVQEKPGQLPRGLIGGTNKRAPWVPARFSGSLLGGKAALTLSGAQPEDEAEYFCALWYSNLWVFGGGTKLTVLGQPKAAPSVTLFPPSSEELQANKATLVCLISDFYPGAVKVAWKADGSPVNTGVETTTPSKQSNNKYAASSYLSLTPEQWKSHRSYSCQVTHEGSTVEKTVAPAECSGGGGSEGKSSGSGSESKSTEGKSSGSGSESKSTGGGGSEVQLVESGGGLVQPGGSLKLSCAASGFTFNTYAMNWVRQAPGKGLEWVARIRSKYNNYATYYADSVKDRFTISRDDSKNTAYLQMNNLKTEDTAVYYCVRHGNFGNSYVSWFAYWGQGTLVTVSAASTKGPSVFPLAPSSKSTSGGTAALGCLVKDYFPEPVTVSWNSGALTSGVHTFPAVLQSSGLYSLSSVVTVPSSSLGTQTYICNVNHKPSNTKVDKRVEPKSCDKTHTCPPCPAPEAAGGPSVFLFPPKPKDTLMISRTPEVTCVVVDVSHEDPEVKFNWYVDGVEVHNAKTKPREEQYNSTYRVVSVLTVLHQDWLNGKEYKCKVSNKALPAPIEKTISKAKGQPREPQVYTLPPSREEMTKNQVSLSCAVKGFYPSDIAVEWESNGQPENNYKTTPPVLDSDGSFFLVSKLTVDKSRWQQGNVFSCSVMHEALHNRFTQKSLSLSPG
notes: Heterodimer of one DLL3 chain and one CD3 chain (scFab-Fc, knob-in-hole)
B2: DLL3#17/CD3#1 (bispecific antibody, human IgG1, kappa, lambda, L234A L235A)
chain 1: DIQMTQSPASLAASVGETVTITCRASENIYYSLAWYQQKQGKSPQLLIYNTNSLEDGVPSRFSGSGSGTQYSMKINSMQPEDTATYFCKQAYDFPLTFGAGTKLELKRTVAAPSVFIFPPSDEQLKSGTASVVCLLNNFYPREAKVQWKVDNALQSGNSQESVTEQDSKDSTYSLSSTLTLSKADYEKHKVYACEVTHQGLSSPVTKSFNRGECGGGGSEGKSSGSGSESKSTEGKSSGSGSESKSTGGGGSQIQLQQSGPEVVKPGASVKISCKASGYTFISYYIHWVKQRPGQGLEWIGWIYPGDGSTNNNEKFKGKTTLTADKSSSTAYMLLSSLTSEDSAVYFCARGEGNAMDDWGQGTSVTVSSASTKGPSVFPLAPSSKSTSGGTAALGCLVKDYFPEPVTVSWNSGALTSGVHTFPAVLQSSGLYSLSSVVTVPSSSLGTQTYICNVNHKPSNTKVDKRVEPKSCDKTHTCPPCPAPEAAGGPSVFLFPPKPKDTLMISRTPEVTCVVVDVSHEDPEVKFNWYVDGVEVHNAKTKPREEQYNSTYRVVSVLTVLHQDWLNGKEYKCKVSNKALPAPIEKTISKAKGQPREPQVYTLPPSREEMTKNQVSLWCLVKGFYPSDIAVEWESNGQPENNYKTTPPVLDSDGSFFLYSKLTVDKSRWQQGNVFSCSVMHEALHNHYTQKSLSLSPG
chain 2: EAVVTQEPSLTVSPGGTVTLTCRSSTGAVTTSNYANWVQEKPGQLPRGLIGGTNKRAPWVPARFSGSLLGGKAALTLSGAQPEDEAEYFCALWYSNLWVFGGGTKLTVLGQPKAAPSVTLFPPSSEELQANKATLVCLISDFYPGAVKVAWKADGSPVNTGVETTTPSKQSNNKYAASSYLSLTPEQWKSHRSYSCQVTHEGSTVEKTVAPAECSGGGGSEGKSSGSGSESKSTEGKSSGSGSESKSTGGGGSEVQLVESGGGLVQPGGSLKLSCAASGFTFNTYAMNWVRQAPGKGLEWVARIRSKYNNYATYYADSVKDRFTISRDDSKNTAYLQMNNLKTEDTAVYYCVRHGNFGNSYVSWFAYWGQGTLVTVSAASTKGPSVFPLAPSSKSTSGGTAALGCLVKDYFPEPVTVSWNSGALTSGVHTFPAVLQSSGLYSLSSVVTVPSSSLGTQTYICNVNHKPSNTKVDKRVEPKSCDKTHTCPPCPAPEAAGGPSVFLFPPKPKDTLMISRTPEVTCVVVDVSHEDPEVKFNWYVDGVEVHNAKTKPREEQYNSTYRVVSVLTVLHQDWLNGKEYKCKVSNKALPAPIEKTISKAKGQPREPQVYTLPPSREEMTKNQVSLSCAVKGFYPSDIAVEWESNGQPENNYKTTPPVLDSDGSFFLVSKLTVDKSRWQQGNVFSCSVMHEALHNRFTQKSLSLSPG
notes: as for B1

How the values were obtained:
[1] = target: T1, human DLL3 (endogenous, on SCLC cell lines NCI-H82 and SHP77 and in SCLC tissue) (human, UniProt Q9NYJ7 27-618); assay: flow cytometry titration on SHP77 cells, PE anti-human secondary, x-fold over background
T1 construct: whole, on cells; also called SCLC cell lines expressing DLL3
T1 sequence (looked up): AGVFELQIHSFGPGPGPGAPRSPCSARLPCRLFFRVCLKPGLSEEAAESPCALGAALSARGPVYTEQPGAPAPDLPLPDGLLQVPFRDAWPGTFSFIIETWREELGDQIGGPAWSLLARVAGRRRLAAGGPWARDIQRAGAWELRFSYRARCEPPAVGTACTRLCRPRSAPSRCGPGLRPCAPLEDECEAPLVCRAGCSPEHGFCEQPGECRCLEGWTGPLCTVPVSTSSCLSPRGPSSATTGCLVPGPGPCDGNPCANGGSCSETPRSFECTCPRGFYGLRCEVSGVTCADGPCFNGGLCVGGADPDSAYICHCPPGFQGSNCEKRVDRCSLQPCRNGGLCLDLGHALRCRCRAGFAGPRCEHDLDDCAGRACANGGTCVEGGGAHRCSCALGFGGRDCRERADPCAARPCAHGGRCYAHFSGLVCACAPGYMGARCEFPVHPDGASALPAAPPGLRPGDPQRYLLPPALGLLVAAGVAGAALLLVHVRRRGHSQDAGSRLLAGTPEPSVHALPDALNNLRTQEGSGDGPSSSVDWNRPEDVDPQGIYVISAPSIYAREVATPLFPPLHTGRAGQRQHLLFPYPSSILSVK
Excerpt: Cells (T cells or human SCLC cells) were stained with increasing concentrations of two-step purified DLL3/CD3 binding proteins with increasing concentrations in FACS buffer (PBS/0.5% BSA/0.05% sodium azide). Bound molecules were detected with PE-conjugated anti-human secondary antibody (Sigma-Aldrich, #P8047).

[2] = target: T2, EGF5+6; assay: flow cytometry on HEK293 cells expressing the DLL3 subdomain construct, PE anti-human secondary, control: secondary antibody only
T2 construct: also called Hu DLL3 EGF5+6 on HEK293 cells
T2 membrane-anchored DLL3 subdomain construct: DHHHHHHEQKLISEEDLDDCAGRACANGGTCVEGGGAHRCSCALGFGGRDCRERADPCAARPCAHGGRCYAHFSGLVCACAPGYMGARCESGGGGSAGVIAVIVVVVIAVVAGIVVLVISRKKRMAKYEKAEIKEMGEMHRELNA
How it was run: (§1)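 Binders tested on HEK293 cells displaying the DLL3 subdomain construct; bound molecules detected by flow cytometry using PE-conjugated anti-human secondary antibody. Negative control: cells with secondary antibody only.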

[3] = target: T3, EGF2+3; assay: as above
T3 construct: also called Hu DLL3 EGF2+3 on HEK293 cells
T3 membrane-anchored DLL3 subdomain construct: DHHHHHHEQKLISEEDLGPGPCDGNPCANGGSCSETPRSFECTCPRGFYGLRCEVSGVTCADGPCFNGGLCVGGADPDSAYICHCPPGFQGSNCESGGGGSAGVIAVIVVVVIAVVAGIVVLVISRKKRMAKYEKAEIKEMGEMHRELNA
How it was run: as §1

[4] = target: T4, EGF6+MEMBRANE PROXIMAL PEPTIDE; assay: as above
T4 construct: also called Hu DLL3 EGF6+membrane proximal peptide on HEK293 cells
T4 membrane-anchored DLL3 subdomain construct: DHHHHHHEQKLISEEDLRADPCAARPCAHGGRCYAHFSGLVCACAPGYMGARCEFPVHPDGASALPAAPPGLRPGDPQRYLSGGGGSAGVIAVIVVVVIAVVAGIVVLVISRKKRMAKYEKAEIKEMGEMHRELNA
How it was run: as §1

[5] = target: T5, EGF3+4; assay: as above
T5 construct: also called Hu DLL3 EGF3+4 on HEK293 cells
T5 membrane-anchored DLL3 subdomain construct: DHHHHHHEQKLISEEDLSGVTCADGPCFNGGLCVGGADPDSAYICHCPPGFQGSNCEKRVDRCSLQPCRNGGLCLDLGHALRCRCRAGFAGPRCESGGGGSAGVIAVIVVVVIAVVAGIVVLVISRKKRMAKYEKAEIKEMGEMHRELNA
How it was run: as §1

[6] = target: T6, EGF1+2; assay: as above
T6 construct: also called Hu DLL3 EGF1+2 on HEK293 cells
T6 membrane-anchored DLL3 subdomain construct: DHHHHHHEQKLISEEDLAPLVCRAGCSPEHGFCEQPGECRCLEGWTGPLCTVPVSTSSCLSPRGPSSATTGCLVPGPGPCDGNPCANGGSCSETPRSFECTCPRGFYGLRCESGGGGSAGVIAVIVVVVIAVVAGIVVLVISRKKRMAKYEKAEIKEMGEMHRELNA
How it was run: as §1

[7] = target: T7, EGF4+5; assay: as above
T7 construct: also called Hu DLL3 EGF4+5 on HEK293 cells
T7 membrane-anchored DLL3 subdomain construct: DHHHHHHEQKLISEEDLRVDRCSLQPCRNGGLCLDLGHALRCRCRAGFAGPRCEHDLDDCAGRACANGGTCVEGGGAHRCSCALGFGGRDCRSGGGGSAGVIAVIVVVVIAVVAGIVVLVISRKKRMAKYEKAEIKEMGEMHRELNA
How it was run: as §1

[8] = target: T8, Human CD3 E+G HuFc-6xHis (human); assay: SPR (ProteOn XPR36), HuCD3E_HuCD3G-Fc amine-coupled, bispecific as analyte, Example 4B
T8 construct: also called hu CD3εγ-Fc
T8 sequence (chain, as listed by the source limits assumed): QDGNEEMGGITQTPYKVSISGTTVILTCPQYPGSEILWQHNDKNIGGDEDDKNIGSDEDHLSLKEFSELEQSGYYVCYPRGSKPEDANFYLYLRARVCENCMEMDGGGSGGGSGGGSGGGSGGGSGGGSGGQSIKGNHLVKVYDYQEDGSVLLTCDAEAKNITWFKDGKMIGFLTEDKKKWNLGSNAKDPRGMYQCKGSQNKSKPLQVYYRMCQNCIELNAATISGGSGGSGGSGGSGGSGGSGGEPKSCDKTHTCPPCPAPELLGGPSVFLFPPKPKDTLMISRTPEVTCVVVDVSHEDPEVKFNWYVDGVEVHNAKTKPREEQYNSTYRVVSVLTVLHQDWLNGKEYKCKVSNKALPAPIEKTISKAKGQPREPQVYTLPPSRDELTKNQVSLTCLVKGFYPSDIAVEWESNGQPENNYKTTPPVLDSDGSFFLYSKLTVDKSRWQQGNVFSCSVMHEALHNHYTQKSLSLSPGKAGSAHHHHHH
How it was run: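 SPR kinetics with the bispecific constructs flowed as analyte over a directly amine-coupled (pH 4.5 acetate) human CD3εγ-Fc surface. Association runs 600 s and dissociation 1800 s, at 30 μl/min in PBS-T-EDTA.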

Binder	EC50 (read off the curve) [1] [nM]	binding result [2]	binding result [3]	binding result [4]	binding result [5]	binding result [6]	binding result [7]	Kd [8] [nM]
B1	~2	no binding (tested: 1.6 nM)	no binding (tested: 1.6 nM)	no binding (tested: 1.6 nM)	no binding (tested: 1.6 nM)	no binding (tested: 1.6 nM)	no binding (tested: 1.6 nM)	2
B2	~2	no binding (tested: 1.6 nM)	no binding (tested: 1.6 nM)	no binding (tested: 1.6 nM)	no binding (tested: 1.6 nM)	no binding (tested: 1.6 nM)	no binding (tested: 1.6 nM)	2
